For experiment [1], the target named is T1, full-length human HER2 receptor on cells (human, UniProt P04626 23-1255).
T1 construct: also called HER2 on JIMT-1 cells; HER2 on BT474, MCF7, SKBR3 cells
Nature of the experiment: flow cytometry competition on JIMT-1 cells: unlabeled XMT 1518 titrated against 30 nM Alexa Fluor 647-labeled XMT 1519. Background: Flow cytometry measures light scatter and fluorescence of single cells or particles in a stream.

For experiment [2], the target named is T1, full-length human HER2 receptor on cells. Nature of the experiment: cell-based or functional assay.
Experiment [3] has the same target. Description: flow cytometry on JIMT-1 cells, Alexa Fluor 647 goat anti-human IgG detection. The protocol:
The cell surface binding of the HER2 antibodies to JIMT-1 cells were evaluated using a Macsquant flow cytometer (Miltenyi Biotec, Bergisch Gladbach, Germany). JIMT-1 cells, grown overnight to approximately 90% confluent cultures in DMEM media (ATCC, Manassas, Va.) with 10% FBS (Gibco®, Life Technologies, Grand Island, N.Y.), were released from the plate surface by treatment with Accutase cell detachment solution (Innovative Cell Technologies, San Diego, Calif.). The detached cells were washed once with ice cold media containing 6% goat serum and resuspended in the same media. 100,000 cells were aliquoted per well of a V-bottom, 96-well plate and incubated with a range of HER2 antibody concentrations (0.05-100 nM) in 150 μl DMEM with 6% goat serum on ice for 3 hours. […] The cells were washed once with ice cold PBS (Gibco®, Life Technologies, Cat.# 10010049) and suspended in 200 μl of ice cold PBS with 1% paraformaldehyde. The amount of fluorescence bound per cell was determined by running 5000 cells for each treatment on the flow cytometer. The median fluorescence value for each treatment was graphed, and the dissociation constant, Kd, was calculated for each antibody with Graphpad Prism software by non-linear regression using the single site, specific binding model.

Experiment [4] has the same target. Description: cell-based or functional assay. This is another data set of the same source.
Experiment [5] shares this target. Nature of the experiment: flow cytometry competition on JIMT-1 cells: unlabeled XMT 1519 titrated against 30 nM Alexa Fluor 647-labeled XMT 1519.
Experiment [6] addresses T2, recombinant cynomolgus monkey HER2 extracellular domain (amino acids 1-652, Sino Biological Cat.# 90295-CO8H) (cynomolgus monkey, UniProt A0A2K5WUT7 1-622).
T2 construct: range 1-652; Bought protein; the stated range 1-652 includes the signal peptide of the construct
Description: ELISA, HER2 extracellular domain coated on plate, one site specific binding fit.
Description: (§1) The affinity of the antibodies for recombinant human and cynomolgus monkey HER2 was determined by an ELISA assay. […] The wells were washed 4 times with TTBS (50 mM Tris-HCl, pH 7.4, 150 mM NaCl, and 0.05% Tween 20). The wells were blocked by incubation with 50 μl of TTBS containing 5% bovine serum albumin for 1 hr. […] Unbound test antibodies were removed with TTBS washes (4×). […] Unbound secondary antibody was removed by 4 TTBS washes. The HRP substrate, TMB Bethyl Laboratories#E102) was added to each well and incubated until a yellow color was visible. The reaction was stopped by the addition of 50 μl of 0.2 N sulfuric acid. […] Kd was determined by non-linear regression using the one site, specific binding model.

Experiment [7] concerns the target recombinant human HER2 extracellular domain (amino acids 23-652, Acro Biosystems Cat.# HE2-H5225) (human, UniProt P04626 23-652). Described as above.
Description: as §1

B1: XMT 1518 antibody (antibody, human IgG1, kappa, V domains shown)
VH: QVQLVESGGGVVQPGRSLRLSCAASGFTFSSYGMHWVRQAPGKGLEWVAGIWWDGSNEKYADSVKGRFTISRDNSKNTLYLQMNSLRAEDTAVYYCAKEAPYYAKDYMDVWGKGTTVTVSS
VL: EIVLTQSPGTLSLSPGERATLSCRASQSVSSDYLAWYQQKPGQAPRLLIYGASRRATGIPDRFSGSGSGTDFTLTISRLEPEDFAVYYCQQYVSYWTFGGGTKVEIKR
For B1, in experiment [1], the “IC50 (read off the curve)” value is ~3 nM. The “AKT phosphorylation in MCF7 cells after 4 h antibody” value in experiment [2] was 103 % of untreated cells.

B2: XMT 1519 antibody (antibody, human IgG1, kappa, V domains shown)
VH: EVQLVESGGGLVQPGGSLRLSCAASGFTFSSYSMNWVRQAPGKGLEWVSYISSSSSTIYYADSVKGRFTISRDNAKNSLYLQMNSLRAEDTAVYYCARGGHGYFDLWGRGTLVTVSS
VL: not shown
On to B2, for which, in experiment [3], the concentration giving a half-maximal response (EC50 (read off the curve)) was ~1 nM. Besides, in experiment [4], the “AKT phosphorylation in BT474 cells after 4 h antibody (western)” value is 21 % of untreated cells and the “HER3 phosphorylation (Tyr 1289) in BT474 cells after 4 h antibody (western)” value was 71 % of untreated cells. Further, in experiment [5], the “IC50 (read off the curve)” value was ~5 nM.

B3: Example 16H, XMT 1519-(EG2-MI-(10 kDa PHF-BA-(AF-HPA-Ala))) (antibody, human IgG1, kappa, V domains shown)
VH: EVQLVESGGGLVQPGGSLRLSCAASGFTFSSYSMNWVRQAPGKGLEWVSYISSSSSTIYYADSVKGRFTISRDNAKNSLYLQMNSLRAEDTAVYYCARGGHGYFDLWGRGTLVTVSS
VL: not shown
modifications: polymer-drug scaffolds on cysteine thiols possible; positions not given; EG2-MI-(10 kDa PHF-BA-(AF-HPA-Ala)) polymer-drug scaffolds joined to cysteine thiols of the partially reduced antibody; positions not given; DAR about 11.8:1 to about 17.5:1
As to B3, the dissociation constant (Kd) in experiment [6] and in experiment [7] was 0.05 nM throughout.

B4: XMT 1520 antibody (antibody, human IgG1, kappa, V domains shown)
VH: EVQLVESGGGLVQPGGSLRLSCAASGFTFSGRSMNWVRQAPGKGLEWVSYISSDSRTIYYADSVKGRFTISRDNAKNSLYLQMNSLRAEDTAVYYCARGGHGYFDLWGRGTLVTVSS
VL: not shown
With B4, in experiment [3], the “EC50 (read off the curve)” value is ~1 nM. Further, in experiment [4], the “AKT phosphorylation in BT474 cells after 4 h antibody (western)” value is 30 % of untreated cells and the “HER3 phosphorylation (Tyr 1289) in BT474 cells after 4 h antibody (western)” value was 76 % of untreated cells.

In general, EC50 (read off the curve) refers to the concentration that produces a half-maximal response. In general, Kd refers to a measure of binding affinity in units of concentration.

The record behind these values is US20170066830A1 (MERSANA THERAPEUTICS, published 2017).
